Measured values from article doi:10.1101/203372 (bioRxiv, 2017).

What was measured:
[1] = target: Ubiquitin, human, recombinant, His-tag (His6-Ub) (human, UniProt P0CG48 1-76); assay: MST
[2] = target: Ubiquitin, human, recombinant (tag-free mono-Ub) (human, UniProt P0CG48 1-76); assay: MST

Kd [1]: 69 nM
Kd [2]: 1250 ± 147 nM
B1: HDAC6-EGFP WT (full-length human histone deacetylase 6 fused to EGFP) (enzyme)
chain: MTSTGQDSTTTRQRRSRQNPQSPPQDSSVTSKRNIKKGAVPRSIPNLAEVKKKGKMKKLGQAMEEDLIVGLQGMDLNLEAEALAGTGLVLDEQLNEFHCLWDDSFPEGPERLHAIKEQLIQEGLLDRCVSFQARFAEKEELMLVHSLEYIDLMETTQYMNEGELRVLADTYDSVYLHPNSYSCACLASGSVLRLVDAVLGAEIRNGMAIIRPPGHHAQHSLMDGYCMFNHVAVAARYAQQKHRIRRVLIVDWDVHHGQGTQFTFDQDPSVLYFSIHRYEQGRFWPHLKASNWSTTGFGQGQGYTINVPWNQVGMRDADYIAAFLHVLLPVALEFQPQLVLVAAGFDALQGDPKGEMAATPAGFAQLTHLLMGLAGGKLILSLEGGYNLRALAEGVSASLHTLLGDPCPMLESPGAPCRSAQASVSCALEALEPFWEVLVRSTETVERDNMEEDNVEESEEEGPWEPPVLPILTWPVLQSRTGLVYDQNMMNHCNLWDSHHPEVPQRILRIMCRLEELGLAGRCLTLTPRPATEAELLTCHSAEYVGHLRATEKMKTRELHRESSNFDSIYICPSTFACAQLATGAACRLVEAVLSGEVLNGAAVVRPPGHHAEQDAACGFCFFNSVAVAARHAQTISGHALRILIVDWDVHHGNGTQHMFEDDPSVLYVSLHRYDHGTFFPMGDEGASSQIGRAAGTGFTVNVAWNGPRMGDADYLAAWHRLVLPIAYEFNPELVLVSAGFDAARGDPLGGCQVSPEGYAHLTHLLMGLASGRIILILEGGYNLTSISESMAACTRSLLGDPPPLLTLPRPPLSGALASITETIQVHRRYWRSLRVMKVEDREGPSSSKLVTKKAPQPAKPRLAERMTTREKKVLEAGMGKVTSASFGEESTPGQTNSETAVVALTQDQPSEAATGGATLAQTISEAAIGGAMLGQTTSEEAVGGATPDQTTSEETVGGAILDQTTSEDAVGGATLGQTTSEEAVGGATLAQTTSEAAMEGATLDQTTSEEAPGGTELIQTPLASSTDHQTPPTSPVQGTTPQISPSTLIGSLRTLELGSESQGASESQAPGEENLLGEAAGGQDMADSMLMQGSRGLTDQAIFYAVTPLPWCPHLVAVCPIPAAGLDVTQPCGDCGTIQENWVCLSCYQVYCGRYINGHMLQHHGNSGHPLVLSYIDLSAWCYYCQAYVHHQALLDVKNIAHQNKFGEDMPHPH
